Earlier results, collected in paper PMC13598549.

Target: TEAD (Homo sapiens) (UniProt P28347)
Chain of UniProt P28347 (P28347 whole entry): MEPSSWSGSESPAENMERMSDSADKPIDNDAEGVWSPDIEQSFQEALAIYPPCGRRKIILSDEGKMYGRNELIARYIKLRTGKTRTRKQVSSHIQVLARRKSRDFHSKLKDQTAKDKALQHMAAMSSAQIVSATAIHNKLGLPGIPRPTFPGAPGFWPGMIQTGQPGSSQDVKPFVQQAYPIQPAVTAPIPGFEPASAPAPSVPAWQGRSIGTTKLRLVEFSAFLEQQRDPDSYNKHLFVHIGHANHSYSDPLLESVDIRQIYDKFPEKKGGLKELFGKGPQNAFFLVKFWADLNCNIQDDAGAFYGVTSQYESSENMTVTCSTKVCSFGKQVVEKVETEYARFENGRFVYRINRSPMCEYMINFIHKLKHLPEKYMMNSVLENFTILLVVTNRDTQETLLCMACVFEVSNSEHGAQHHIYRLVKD

Kd: 40 nM
Substance: YAP (from UniProt P46937)
